Experimental data from the nanobody polyreactivity screen of Harvey et al. (2022).

test: yeast display, Sf9 membrane polyspecificity reagent, FACS + sequencing; frameworks hold sequencing errors
Procedure, shortened: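 A nanobody's polyreactivity label depends on the gate it was sorted from. Yeast display cells were stained with 10% biotinylated, detergent-solubilized Sf9 membrane reagent for 1 hour at 4 °C, enriched on streptavidin microbeads and sorted by FACS. The low and high (top ~1%) gates were set on anti-HA fluorescence for expression and streptavidin fluorescence for reagent binding.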

Row | Sequence | polyreactivity (PSR sort gate)
1 | QVQLVESRGVLVQAGGSLRLSCAASGLTFGGNAKGWYRQAPGKERELVAAISWSDDTTDYADSVKGRFTISRDNAKNTVYLQMNSLKPEDTAVYYCAARLPFEHVDYWGQGTQVTVSS | low polyreactivity
2 | QVQLVESRGVLVQAGGSLRLSCAASGSIFEWYAMGWYRQAPGKERELVAVISDGSTNYADSVKGRFTISRDNAKKTVYLQMNSLKPEDPAVSYCAADPFDGYSSSEYDYWGQGTQVTVSS | low polyreactivity
3 | QVQLVESRRGLVQAGGSLRLSCASSGFTVCWYAMGLYRPAPGTERELVAAISSGGSTNYADSVKGRFTISRDNAKNTVYFQMNSLKPEDTAVYYCARRLWYSDRYSARWQYDYWGQGTQVTVSS | high polyreactivity
4 | QVQLVESVGCLVQPGGSLRLSCATSGSIFLLYARGWYRQPPGKERELVAAITSSGGSTNYADSVKGRITISRDTAKNTVYLQMNSLKPEDTEVYYSATAPYAYTILGSRFDYWGKGTQVTVSS | low polyreactivity
5 | QVQLVESVGGLDQAGGSLRLSCAASGRIFRYYAMGWDRQAPGKERELVAAITSDGRTYYADSVKGRFTISRDNAKNTVYLQMNSLKPEDTAVYYCAADHHSYRYGGYYYWGQGTQVTVSS | low polyreactivity
6 | QVQLVESVGGLFHEGGSLRLSSAASGFIFWANAMGCYRQAPGKERELVAAIRNSGGRTYYADSVKGRFTISRDKAKNTVYLQMNSLKPEDTAVYFCATDTGYPYSYDLFDSYYWGQGTQLTVSS | low polyreactivity
7 | QVQLVESVGGLFQAGGSLRLSCDASGFTFTAYAMGWYIQAPGKERELVAAINWSGSRTYYADSVKGRFTISRDNAKNTVYLQMNSLKPEDTAVYYCNTATSKSSYRHYDYWGQGTQVTVSS | high polyreactivity
8 | QVQLVESVGGLVKAGGRLRLSCAASGRIFPPNALACSRQAPGKERELVADNNFSGDSTYYADSVKGRFTISRDNAKNTVYLQMNSLKPEDTSVYYCAAVISLVSYYYWGQATQVTVSS | low polyreactivity
9 | QVQLVESVGGLVKAGVSLRLSCAASGYIFPYYAMGWYRQAPGKERELVAAISRSGGGTYYADSVKGRFTISRYNAKNTVYFQMKSLKPVVTAVYYFNRRSGQVDVYDYWGQGTKVTVSS | low polyreactivity
10 | QVQLVESVGGLVQAGGILRLSSAASGSTFDINEKGWYRQAPGKERELVAAITWSGDSTYYADSVKGRFTISRDNAKNTVYLQMNSLKPVDTAVYYCSAYYPYSYYEDASYYYWGQGTQVTLSS | low polyreactivity
11 | QVQLVESVGGLVQAGGRLRLSCAASGSIFLYNAMGWYRQAPGKERELVAVINGRGGTYYADSVKGRFTISRDNAKNTVYLQMNSLKPEDTAVYYCATGYPPSAGYDSVRFEDRDSWGQGTQVTVSS | low polyreactivity
12 | QVQLVESVGGLVQAGGRLRLSCAASGSIFSIYGMGWYRQAPGKERELVAVISKSGTRTFYADSVKGRFTISRDNAKNTVYLQMNSLKPEDTAVYYCNARIFFRRNVTQVRMDYWGQGTQVTVSS | high polyreactivity
13 | QVQLVESVGGLVQAGGRLRLSCAASGSIFWFNAMGWYRQAPGKEREFVASISRSGGTTYYADSVKGRFTISRDNAKNTVYLQMNSLKPEDTAVYYCNARAYGNGLGTGYFGNHRYDYWGQGTQVTVSS | low polyreactivity
14 | QVQLVESVGGLVQAGGRLRLSCAASGSTFAFNAMGWSRQAPGKEREFVAVISYRTDNTYYADSVKGRFTISRDNAKNTVYLQMNSLKPEDTAVYYCAAASSYSKKPYYSYGYWGQGTQVTVSS | high polyreactivity
15 | QVQLVESVGGLVQAGGSHRLSGAASGRTLYRYGLGWYRQAPGKDRELVAVIDRGGSTNYADSVKGRFTISRDNAKNTVYLQMNSLKPEDTAVYYCAKRWTAREAWRKGMGYWGQGTKVTVSS | high polyreactivity
16 | QVQLVESVGGLVQAGGSLPLSCAASGSTFVDYDMGWYRQAPGKERELVAAITYSGARTYYADSVKGRFTISRDNAKNTVYLQMNSLTPEDSAVYYGNADQRTASDQLEFDYWGQGTQVTVSS | low polyreactivity
17 | QVQLVESVGGLVQAGGSLRFSCAASGRIFKWYAMGWYRQAPGKEREFVAGIRWGGGRTHYADSVKGRFTISRDNAKNTVYLQMNSLKPEDTAVYYCAADNRGNTVYYRNYYWGQGTQVTVSS | high polyreactivity
18 | QVQLVESVGGLVQAGGSLRLICAASGIIFKFNAMGWYRQAPGKEREFVAAIRWRGGSTYYADSVKGRFTISRDNAKNTVYLQMNSLKPEDTAVYYCAATYRTGYYYWGQGTQVTVSS | high polyreactivity
19 | QVQLVESVGGLVQAGGSLRLSCAASGFIFSWYAMGWYRQAPGKERELVAAINSGGRTSYADSVKGRFTISRDNAKNTVYLQMNSLKPEDTAVYYCAAPVYYYNRARYSYDYWGQGTQVTVSS | high polyreactivity
20 | QVQLVESVGGLVQAGGSLRLSCAASGFIFYRYAMGWYRKAPGKEWEFVAAINYSATSTYYADSVKGRFTISRDNAKNTVYLQMNSLKPEDTAVYYCAAKRVRRLSYETKYDYWGQGTQVTVSS | high polyreactivity
21 | QVQLVESVGGLVQAGGSLRLSCAASGFILGYNAMGWYRQAPGKERELVADITFSGGGTNYADSVKGRFTISRDNAKNTVYLQMNSLKPEDTAVYDCNAAAFSQLRVRYDYWGQGTQVTVSS | low polyreactivity
22 | QVQLVESVGGLVQAGGSLRLSCAASGFTFGYYAMGWYRQAPGKERELVASISRSGGSTNYADSVKGRFTISRDNAKNTVYLQMNSLKPEDTAVYYCAKPLWDPKYDYWGQGTQVTVSS | high polyreactivity

Row | Sequence | polyreactivity (PSR sort gate)
23 | QVQLVESVGGLVQAGGSLRLSCAASGFTFNGYAMGWYRQAPGKERELVAAINISGGSTYYADSVKGRFTISRDNAKNTVYLQMNSLKPEDTAVYYCAARLWGIRYSYRYGYWGQGTQVTVSS | high polyreactivity
24 | QVQLVESVGGLVQAGGSLRLSCAASGFTFRVNAMGWYIQAPGKERELVAAISSGGSTNYADTVKGRFTISRDNAKNTVYLQMNSLKPEDTAVYYCAKRFKYIYYWGQGTQVTVSS | high polyreactivity
25 | QVQLVESVGGLVQAGGSLRLSCAASGFTSWDNDMGWYRQAPGKERELVAAISRGGSTNYADSVKGRFTISRDNAKNTVYLQMNSLKPEDTAVYYCATAAVTPVWYDYWGQGTQVTVSS | low polyreactivity
26 | QVQLVESVGGLVQAGGSLRLSCAASGGIFNGYAMGWYRQAPGKERELVAAITASGARTYYADSVKGRFTISRDNAKNTVYLQMNSLKPEDTAVYYCAKGFSYPGGPYYYFLGYGYWGQGTQVTVSS | high polyreactivity
27 | QVQLVESVGGLVQAGGSLRLSCAASGIILLYYALGWYRQAPGKERELVAAITTSGGRTYYADSVKGRFTISRDNAKNTVYLQMNSLKPEDTAVYYCAASTQGTYYPYKRYDYWGQGTQVTVSS | high polyreactivity
28 | QVQLVESVGGLVQAGGSLRLSCAASGITFSTNAMGWYRQAPGKERELVAAITSVTSTYYADSVKGRFTISRDNAKNTVYLQMNSLKPEDTAVYYCASRLSRWPYFYEYNYWGQGTQVTVSS | low polyreactivity
29 | QVQLVESVGGLVQAGGSLRLSCAASGITFTVYAMGWYRQAPGKERELVAAISSSGSTTYADSVKGRFTISRDNAKNTVYLQMNSLKPEDTAVYYCAAYSDYYLDQWYGYWGQGTQVTVSS | low polyreactivity
30 | QVQLVESVGGLVQAGGSLRLSCAASGITFYDNAMGWYRQAPGKERELVAGISYSGGRTYYADSVKGRFTISRDNAKNTVYLQMNSLKPEDTAVYYCNARFGKYRSRQGYYYWGQGTQVTVSS | high polyreactivity
31 | QVQLVESVGGLVQAGGSLRLSCAASGITSYRYTKGWYRQAPGKARELVAAITISGGRTYYGDSVKGRFTISRDNAKNTVYLQLNSLKPEDTAVYYCAAGWRSGFDYWGQGTQVTVSS | high polyreactivity
32 | QVQLVESVGGLVQAGGSLRLSCAASGLNFSYYAMGWYRQAPGKERELVAAIDWISGSTYYADSVKGRFTISRDNAKNTVYLQMNSLKPEDTAVYYCAAYGSFWYAGFGYWGQGTQVTVSS | low polyreactivity
33 | QVQLVESVGGLVQAGGSLRLSCAASGLTFWYYAMGCYRQAPGKERELVARITRSGVGTYYADSVKGRFTISRDNAKNTVYLQMNSLKAEDTAVYYCNARYQYSWVRYGYDYWGQGTQVTVSS | high polyreactivity
34 | QVQLVESVGGLVQAGGSLRLSCAASGNIFYSYDMGWYRQAPGKERELVATISYRGTSTNYADSVKGRFTISRDNAKNTVYLQMNSLKPEDTAVYYCASDRGSHFARGSAYDYWGQGTQVTVSS | low polyreactivity
35 | QVQLVESVGGLVQAGGSLRLSCAASGNTFRYNTMGWYRQAPGKERELVAVITRRGSSTYYADSVKGRFTISRDNAKNTVYLQMNSLKPEDTAVYYCAAGYGRYGYVYSGYGKWEDYWGQGTQVTVSS | high polyreactivity
36 | QVQLVESVGGLVQAGGSLRLSCAASGRIFFYYGRGWYRQAPGKERELVAAITKRSSSTYYADSVKGRFTISRDNAKNTVYLQMNSLKPEDTAVYYCNAYPYRYVRRMDYWGQGTQVTVSS | high polyreactivity
37 | QVQLVESVGGLVQAGGSLRLSCAASGRIFGWYAMGWYRQAPGKERELVAAITSGGTTYYADSVKGRFTISRDNAKNTVYLQMNSLKPEDTAVYYCAKYHWRLSFSRYPYDYWGQGTQVTVSS | high polyreactivity
38 | QVQLVESVGGLVQAGGSLRLSCAASGRIFNYNAMGWYRQAPGKERELVAAITSSGDSTNYADSVKGRFTISRDNAKNTVYLQMNSLKPEDTAVYYCNASSPYDYDWGQGTQVTVSS | low polyreactivity
39 | QVQLVESVGGLVQAGGSLRLSCAASGRIFVYYAMGWYRQAPGKERELVAAINSSGGRTYYADSVKGRVTISRDNAKNTVSLQMNSLQPEDTAVYYCAAVYRSWTSSNGRNYWGQGTQVTVAS | high polyreactivity
40 | QVQLVESVGGLVQAGGSLRLSCAASGRIFYFYAMGWYRQAPGKERELVASISSGSSTNYADSVKGRFTISRDNAKNTVYLQMNSLKPEDTAVYYCAAQPWHGSRPRSYYWGQGTQVTVSS | high polyreactivity
41 | QVQLVESVGGLVQAGGSLRLSCAASGRILRTNALGWYRKAPGKERELVAAISSDGSTYYADSVKGRFTISRDNAKNTVYLQMNSLKPEDTAVYYCAARLFYRGPRFDYWGQGTQVTVSS | low polyreactivity
42 | QVQLVESVGGLVQAGGSLRLSCAASGRIYAMGLYRPAPGKERELVAAISRGGSTYYADSVKGRFTISRDNAKNTVYLQMNSLKPEDSAVYYCARRYASTGYDYWGQGTQVTESS | high polyreactivity
43 | QVQLVESVGGLVQAGGSLRLSCAASGRTFKFYAMGWYRQAPGKERELVAAISSSGGRTYYADSVKGRFTISRDIAKNTVYLQMNSLKPVDTAVYYCARSSDYYFFGHYYWGQGTQVTVSS | high polyreactivity
